One molecule from patent US20230133775A1 (University of California, published 2023) can be followed below.

In the experiment the target is T1, Leucine-rich repeat-containing protein 15 (LRRC15) on LRRC15-expressing cells (UniProt Q8TF66 22-581, limits assumed).
T1 construct: whole, on cells; also called leucine-rich repeat containing 15
T1 sequence (looked up): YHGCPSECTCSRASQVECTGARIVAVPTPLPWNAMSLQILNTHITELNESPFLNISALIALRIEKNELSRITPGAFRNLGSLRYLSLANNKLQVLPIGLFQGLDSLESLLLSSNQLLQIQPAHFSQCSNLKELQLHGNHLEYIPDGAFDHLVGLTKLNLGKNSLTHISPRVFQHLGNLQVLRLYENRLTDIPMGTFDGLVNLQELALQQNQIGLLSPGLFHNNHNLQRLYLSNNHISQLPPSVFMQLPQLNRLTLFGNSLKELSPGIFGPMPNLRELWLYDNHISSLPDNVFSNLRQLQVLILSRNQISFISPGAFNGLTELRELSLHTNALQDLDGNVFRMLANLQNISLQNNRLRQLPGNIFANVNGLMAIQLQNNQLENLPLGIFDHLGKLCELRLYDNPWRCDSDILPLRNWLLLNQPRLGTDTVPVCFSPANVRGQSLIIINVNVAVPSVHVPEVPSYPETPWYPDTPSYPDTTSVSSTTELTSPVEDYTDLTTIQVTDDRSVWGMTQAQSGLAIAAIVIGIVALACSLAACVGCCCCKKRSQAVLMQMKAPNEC
As to the kind of experiment: LigandTracer, radiolabeled antibody on live target cells. How it is done: DUNP 19 was developed by humanization of a hybridoma mAb generated from immunizing mice with stably transfected LRRC15-expressing 3T3 cells. […] Liquid chromatography-mass spectrometry (LC-MS) analysis of DUNP19 incubated with LRRC15-expressing cell lines confirmed molecular binding specificity. […] LigandTracer (Ridgeview Instruments) was utilized to assess binding interaction between live cells and Lutetium-177 labeled DUNP19 ([¹⁷⁷Lu]DUNP19). […] Internalization rate was studied by quantifying emitted fluorescence over time from SAOS2 cells incubated with pH-responsive dye-labeled DUNP19. Identification of colocalization of Alexa-488 labeled DUNP19 with intracellular markers (DAPI and LAMP1) in SAOS2 cells over time was applied to further confirm time of internalization.

B1: Lutetium-177 labeled DUNP19 ([177Lu]DUNP19) (antibody, V domains shown)
VH: QVQLVQSGAEVKKPGASVKVSCKASGYTFTDYYIHWVRQAPGQGLEWMGWINPNSDGTNYAQNFLGRVTMTRDTSISTAYMELSRLRSDDSAVYHCVREGRYSTSPFDYWGQGTLVTVSS
VL: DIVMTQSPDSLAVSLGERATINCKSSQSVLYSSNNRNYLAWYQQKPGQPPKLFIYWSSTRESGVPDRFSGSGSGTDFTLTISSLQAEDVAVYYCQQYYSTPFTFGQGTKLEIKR
notes: also called 177Lu-DOTA-DUNP19
On to B1, for which the Kd (usually the concentration at which binding is half-saturated) was found to be 0.329 nM.
